Experiment [1] concerns the target T1, dog HER3 on CHO-dHER3 cells (dog, UniProt P21860 20-1342 (human entry)).
T1 construct: CHO-S cells transfected with dHER3
T1 chain: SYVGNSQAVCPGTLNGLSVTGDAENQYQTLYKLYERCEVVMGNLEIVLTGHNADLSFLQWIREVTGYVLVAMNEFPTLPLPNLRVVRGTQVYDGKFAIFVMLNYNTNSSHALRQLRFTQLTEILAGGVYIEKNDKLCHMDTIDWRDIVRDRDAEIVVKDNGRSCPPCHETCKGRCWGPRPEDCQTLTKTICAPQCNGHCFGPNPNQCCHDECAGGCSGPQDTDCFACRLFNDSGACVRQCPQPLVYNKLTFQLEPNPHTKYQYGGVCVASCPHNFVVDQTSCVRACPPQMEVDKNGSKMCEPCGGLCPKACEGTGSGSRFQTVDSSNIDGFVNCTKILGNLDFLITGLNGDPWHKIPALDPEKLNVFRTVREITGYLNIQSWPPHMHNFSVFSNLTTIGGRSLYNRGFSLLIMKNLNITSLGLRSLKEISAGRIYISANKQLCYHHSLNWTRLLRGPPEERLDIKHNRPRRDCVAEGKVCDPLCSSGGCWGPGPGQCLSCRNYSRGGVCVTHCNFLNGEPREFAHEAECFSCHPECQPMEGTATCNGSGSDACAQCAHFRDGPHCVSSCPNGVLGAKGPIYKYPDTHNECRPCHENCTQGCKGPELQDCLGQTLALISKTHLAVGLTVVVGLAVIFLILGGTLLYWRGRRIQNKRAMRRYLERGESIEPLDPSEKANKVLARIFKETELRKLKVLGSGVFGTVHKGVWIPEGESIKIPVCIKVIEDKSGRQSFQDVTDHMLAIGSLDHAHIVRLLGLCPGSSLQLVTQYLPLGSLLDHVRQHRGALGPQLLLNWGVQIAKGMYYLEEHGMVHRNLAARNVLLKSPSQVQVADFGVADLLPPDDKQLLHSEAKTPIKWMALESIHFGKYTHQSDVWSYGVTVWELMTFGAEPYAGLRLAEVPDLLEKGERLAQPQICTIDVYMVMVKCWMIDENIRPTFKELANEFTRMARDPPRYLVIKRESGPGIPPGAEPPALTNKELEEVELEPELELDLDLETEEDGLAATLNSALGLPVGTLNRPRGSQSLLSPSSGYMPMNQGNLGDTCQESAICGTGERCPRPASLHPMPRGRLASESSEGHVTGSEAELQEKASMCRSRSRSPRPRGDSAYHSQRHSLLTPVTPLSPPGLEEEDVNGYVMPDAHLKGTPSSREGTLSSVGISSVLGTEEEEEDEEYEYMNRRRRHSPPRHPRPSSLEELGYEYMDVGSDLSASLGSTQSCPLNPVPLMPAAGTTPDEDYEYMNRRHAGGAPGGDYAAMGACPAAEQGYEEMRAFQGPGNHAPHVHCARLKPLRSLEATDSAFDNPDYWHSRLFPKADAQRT
Briefly: flow cytometry, transfected CHO cells. How it is done:
(§1) CHO-hHER3 cells, CHO-mHER3 cells, CHO-fasHER3 cells or CHO-dHER3 cells were transferred to a 96-well plate at a density of 5×10⁴ cells/well respectively. The anti-HER3 antibodies were added to the 96-well plate, and incubated at 4° C. for 30 min.

Experiment [2] concerns the target T2, monkey (Macaca fascicularis) HER3 on CHO-fasHER3 cells (monkey (Macaca fascicularis), UniProt P21860 20-643 (human entry)).
T2 construct: CHO-S cells transfected with fasHER3
T2 chain: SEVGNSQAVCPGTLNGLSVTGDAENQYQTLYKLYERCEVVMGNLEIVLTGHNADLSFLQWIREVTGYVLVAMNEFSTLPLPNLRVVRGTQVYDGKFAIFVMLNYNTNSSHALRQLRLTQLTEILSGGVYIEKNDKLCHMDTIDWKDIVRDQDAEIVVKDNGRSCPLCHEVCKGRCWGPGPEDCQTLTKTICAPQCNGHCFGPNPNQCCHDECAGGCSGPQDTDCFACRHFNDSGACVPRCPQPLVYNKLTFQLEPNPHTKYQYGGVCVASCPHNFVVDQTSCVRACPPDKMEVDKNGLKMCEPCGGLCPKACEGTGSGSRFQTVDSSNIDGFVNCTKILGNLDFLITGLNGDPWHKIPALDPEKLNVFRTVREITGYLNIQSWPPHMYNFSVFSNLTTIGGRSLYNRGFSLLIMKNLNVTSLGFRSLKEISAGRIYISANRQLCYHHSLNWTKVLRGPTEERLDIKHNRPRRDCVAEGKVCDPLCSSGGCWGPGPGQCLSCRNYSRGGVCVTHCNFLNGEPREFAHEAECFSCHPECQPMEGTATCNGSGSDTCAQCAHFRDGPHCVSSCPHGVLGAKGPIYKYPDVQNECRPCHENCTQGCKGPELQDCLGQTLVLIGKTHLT
Briefly: flow cytometry, transfected CHO cells. On the procedure:
as §1
A general note: In flow cytometry, cells or beads pass a laser one at a time.

In experiment [3] the target is T3, mouse HER3 on CHO-mHER3 cells (mouse, UniProt Q61526 20-641).
T3 construct: CHO-S cells transfected with mHER3
T3 sequence (Q61526 20-641): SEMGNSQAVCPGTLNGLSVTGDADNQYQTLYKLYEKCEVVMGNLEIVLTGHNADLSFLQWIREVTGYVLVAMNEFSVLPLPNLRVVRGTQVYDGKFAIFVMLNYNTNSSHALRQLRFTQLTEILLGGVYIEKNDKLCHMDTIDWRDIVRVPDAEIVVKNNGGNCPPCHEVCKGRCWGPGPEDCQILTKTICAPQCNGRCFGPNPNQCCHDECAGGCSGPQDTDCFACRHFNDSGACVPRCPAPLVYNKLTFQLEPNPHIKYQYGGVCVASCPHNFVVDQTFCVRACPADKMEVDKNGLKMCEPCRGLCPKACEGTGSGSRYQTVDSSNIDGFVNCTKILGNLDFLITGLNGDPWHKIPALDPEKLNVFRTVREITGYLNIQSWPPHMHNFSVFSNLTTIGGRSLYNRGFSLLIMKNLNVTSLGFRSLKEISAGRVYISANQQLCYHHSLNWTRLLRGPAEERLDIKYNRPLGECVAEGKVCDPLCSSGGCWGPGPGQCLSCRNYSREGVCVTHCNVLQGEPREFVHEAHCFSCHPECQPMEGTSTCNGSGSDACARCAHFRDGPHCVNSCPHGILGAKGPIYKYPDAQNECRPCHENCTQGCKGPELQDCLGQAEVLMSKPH
Briefly: flow cytometry, transfected CHO cells. On the procedure:
as §1

In experiment [4] the target is T4, human HER3 on CHO-hHER3 cells (human, UniProt P21860 20-643).
T4 construct: CHO-S cells transfected with hHER3
Briefly: flow cytometry, transfected CHO cells. How it is done:
as §1

The target in experiment [5] is T5, His-tagged monkey HER3 protein (fasHER3, Sino Biological, Inc., Cat #: 90043-K08H) (monkey).
T5 construct: Bought protein
The experiment in a line: SPR, Ab captured on Protein A. On the procedure: (§2) Purified anti-HER3 antibodies was captured on the Protein A chip (Series S Sensor Chip Protein A) for the detection. […] For ISO control, an antibody targeting an irrelevant target protein was used. The flow rate was 30 μL/min, the binding and dissociation time were set to 180 s and 400 s, respectively. The chip was regenerated after the last injection of each titration with a glycine solution (pH 2.0) at 30 μL/min for 30 seconds.
(§3) As a person of ordinary skill in the art would understand, the same method with appropriate adjustments for parameters (e.g., antibody concentration) was performed for each tested antibody.
For orientation: SPR reads the build-up and loss of mass on a sensor chip optically.

Experiment [6] deals with T6, His-tagged human HER3 protein (hHER3, ACRO Biosystems Inc., Cat #: ER3-H5223) (human, UniProt P21860 20-643).
T6 construct: Bought protein; also called hHER3-His; not shown: His tag
The experiment in a line: SPR, Ab captured on Protein A. How it is done:
as §2, §3

Experiment [7] has as its target T7, His-tagged dog HER3 protein (dHER3, SEQ ID NO: 45) (dog, UniProt P21860 20-642 (human entry)).
T7 construct: not shown: His tag
T7 chain: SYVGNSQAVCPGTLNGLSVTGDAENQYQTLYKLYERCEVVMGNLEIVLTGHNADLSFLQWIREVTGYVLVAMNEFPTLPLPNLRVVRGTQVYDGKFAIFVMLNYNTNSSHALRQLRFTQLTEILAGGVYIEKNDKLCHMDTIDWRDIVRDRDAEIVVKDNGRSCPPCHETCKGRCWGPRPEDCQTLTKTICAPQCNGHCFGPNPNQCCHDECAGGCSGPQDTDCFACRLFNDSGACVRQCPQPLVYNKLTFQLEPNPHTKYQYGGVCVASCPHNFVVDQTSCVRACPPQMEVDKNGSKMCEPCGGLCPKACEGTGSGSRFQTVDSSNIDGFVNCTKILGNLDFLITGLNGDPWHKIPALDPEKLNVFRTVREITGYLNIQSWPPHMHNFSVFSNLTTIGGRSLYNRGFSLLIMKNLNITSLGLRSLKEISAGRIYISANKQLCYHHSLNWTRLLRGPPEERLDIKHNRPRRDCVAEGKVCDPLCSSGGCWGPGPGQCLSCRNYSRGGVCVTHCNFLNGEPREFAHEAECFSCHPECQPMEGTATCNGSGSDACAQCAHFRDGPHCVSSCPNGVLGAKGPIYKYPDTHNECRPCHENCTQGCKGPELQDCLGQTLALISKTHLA
The experiment in a line: SPR, Ab captured on Protein A. How it is done:
as §2, §3

In experiment [8] the target is T8, human HER4 (hHER4, ACRO Biosystems Inc., Cat #: ER4-H5221), recombinant His-tagged (human, UniProt Q15303 26-649).
T8 construct: Bought protein; not shown: His tag
T8 sequence (looked up): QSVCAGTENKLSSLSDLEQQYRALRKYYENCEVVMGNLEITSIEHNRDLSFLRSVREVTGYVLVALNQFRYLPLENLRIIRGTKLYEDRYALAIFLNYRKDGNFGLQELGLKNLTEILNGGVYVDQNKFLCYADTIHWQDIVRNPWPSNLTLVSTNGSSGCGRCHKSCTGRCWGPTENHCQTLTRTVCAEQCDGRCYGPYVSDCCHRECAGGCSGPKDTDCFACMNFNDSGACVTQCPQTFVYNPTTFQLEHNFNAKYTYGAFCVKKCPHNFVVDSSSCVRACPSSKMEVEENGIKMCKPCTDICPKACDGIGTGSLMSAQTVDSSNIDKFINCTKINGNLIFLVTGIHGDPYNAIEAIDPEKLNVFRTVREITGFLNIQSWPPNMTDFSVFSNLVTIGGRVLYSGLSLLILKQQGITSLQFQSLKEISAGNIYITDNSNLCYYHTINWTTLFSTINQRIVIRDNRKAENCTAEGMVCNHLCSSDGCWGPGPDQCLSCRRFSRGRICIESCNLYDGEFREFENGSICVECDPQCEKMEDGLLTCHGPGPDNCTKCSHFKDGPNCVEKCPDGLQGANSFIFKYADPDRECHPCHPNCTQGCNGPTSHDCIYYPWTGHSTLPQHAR
Briefly: SPR (Biacore 8K), antibody captured on Protein A chip, His-tagged hHER4 injected at 0-400 nM; response (RU) plotted against concentration [panel F]. How it is done: The cross binding activities of anti-HER3 antibodies to HER family proteins were determined by surface plasmon resonance (SPR) using Biacore (Biacore, INC, Piscataway N.J.) 8K biosensor equipped with pre-immobilized Protein A sensor chips.
Purified anti-HER3 antibodies were diluted to 2 μg/mL and then injected into the Biacore 8K biosensor at 10 μL/min for about 50 seconds to achieve a desired protein density (e.g., about 200 response units (RU)). […] The association phase lasted for 180 s and the dissociation phase lasted 400 s followed by a regeneration step with Glycine (pH 2.0, 30 μL/min for 30 seconds). For isotype control (ISO), an antibody targeting an irrelevant target protein was used.

B1: anti-HER3 antibody 1D6 (antibody, V domains shown)
VH: EVQLVQSGPGLVKPSETLSLTCTVSGGSISSNNYYWAWIRQPPGKGLEWIGSLYYTGRAYYKSSLKSRVTISVDTSNDQFSLRLTSVTAADTAIYYCARHDCGNTCLNWFDRWGQGTLVTVSS
VL: not shown
notes: common light chain
One may read the Kd as the concentration at which binding is half-saturated. By koff is commonly meant a measure of how fast the partners let go of each other. The term kon denotes a measure of how fast the partners come together. Take B1: the “Percentage of Positive Cells” value came out at 38.1% in experiment [1], 62.9% in experiment [2], 58.9% in experiment [3] and 68% in experiment [4]. The Kd in experiment [5] is 14.4 nM; in experiment [6], 81.4 nM; in experiment [7], 77.4 nM. For the same molecule, the results for the koff in experiment [5], in experiment [6] and in experiment [7] were 0.00098 s⁻¹, 0.00769 s⁻¹ and 0.0045 s⁻¹, respectively. The figures for the kon in experiment [5], in experiment [6] and in experiment [7] were 68000 M⁻¹ s⁻¹, 94500 M⁻¹ s⁻¹ and 58100 M⁻¹ s⁻¹, respectively.

B2: Patritumab analog (antibody, V domains shown)
VH: QVQLQQWGAGLLKPSETLSLTCAVYGGSFSGYYWSWIRQPPGKGLEWIGEINHSGSTNYNPSLKSRVTISVETSKNQFSLKLSSVTAADTAVYYCARDKWTWYFDLWGRGTLVTVSS
VL: not shown
notes: also called positive control
Consider B2, for which the binding result in experiment [8] is on record as “no binding (tested: 400 nM)”.
